For seven molecules, EC50 [nM], 0% HSA and EC50 [nM], 0.1% HSA results are on record in US12679878B2, “CRF2 receptor agonists and their use in therapy” (SANOFI, priority 2020, dated 2026).

Starred links: 1 amine or outer side, 2 acyl side, 3 side chain; linkers in the order of their positions; H or OH if unused. Non-standard residues stand in square brackets, D forms with d. Groups on a side chain read outwards from the residue. No end group written: not given here. *: point of attachment. C18 diacid = O=C(O)CCCCCCCCCCCCCCCCC(=O)*; γGlu = O=C(O)[C@H](CCC(=O)[*:2])N[*:1]; Palmitoyl = CCCCCCCCCCCCCCCC(=O)*; AEEA = NCCOCCOCC(=O)O; Aib = CC(C)(N)C(=O)O

The assay addresses human corticotropin-releasing factor 2α (CRF2 α receptor) (human), Q13324. The experiment in a line: cell-based or functional assay.

Sequence of human corticotropin-releasing factor 2α (CRF2 α receptor) (human), Q13324 (Q13324 20-411): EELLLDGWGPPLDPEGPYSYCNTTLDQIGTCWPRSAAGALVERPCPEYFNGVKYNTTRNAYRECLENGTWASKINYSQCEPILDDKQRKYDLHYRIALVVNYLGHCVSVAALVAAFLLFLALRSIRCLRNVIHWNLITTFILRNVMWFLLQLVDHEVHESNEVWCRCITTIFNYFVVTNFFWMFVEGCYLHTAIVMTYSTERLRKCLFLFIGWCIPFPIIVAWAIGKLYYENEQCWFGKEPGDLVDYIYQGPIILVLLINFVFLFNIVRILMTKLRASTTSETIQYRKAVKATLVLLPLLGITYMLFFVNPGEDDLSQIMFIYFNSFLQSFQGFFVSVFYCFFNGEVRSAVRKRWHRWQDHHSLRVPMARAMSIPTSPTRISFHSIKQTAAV

Turning to IVLSLD[dV]PTKLK([γGlu-Palmitoyl])QKLLKQERQRKEREQAEKNVRILERV-NH2 [SEQ ID NO: 32], the EC50 [nM], 0% HSA was 0.01 nM.

B1: SEQ ID NO: 35 (peptide)
peptide: IVLSLDVPIKLK([AEEA-AEEA-γGlu-C18 diacid])KILLEQEKQKKQREQAETNKQILAQV-NH2
modifications: N-terminus assumed
SMILES: CC[C@H](C)[C@H](N)C(=O)N[C@H](C(=O)N[C@@H](CC(C)C)C(=O)N[C@@H](CO)C(=O)N[C@@H](CC(C)C)C(=O)N[C@@H](CC(=O)O)C(=O)N[C@H](C(=O)N1CCC[C@H]1C(=O)N[C@H](C(=O)N[C@@H](CCCCN)C(=O)N[C@@H](CC(C)C)C(=O)N[C@@H](CCCCNC(=O)COCCOCCNC(=O)COCCOCCNC(=O)CC[C@H](NC(=O)CCCCCCCCCCCCCCCCC(=O)O)C(=O)O)C(=O)N[C@@H](CCCCN)C(=O)N[C@H](C(=O)N[C@@H](CC(C)C)C(=O)N[C@@H](CC(C)C)C(=O)N[C@@H](CCC(=O)O)C(=O)N[C@@H](CCC(N)=O)C(=O)N[C@@H](CCC(=O)O)C(=O)N[C@@H](CCCCN)C(=O)N[C@@H](CCC(N)=O)C(=O)N[C@@H](CCCCN)C(=O)N[C@@H](CCCCN)C(=O)N[C@@H](CCC(N)=O)C(=O)N[C@@H](CCCNC(=N)N)C(=O)N[C@@H](CCC(=O)O)C(=O)N[C@@H](CCC(N)=O)C(=O)N[C@@H](C)C(=O)N[C@@H](CCC(=O)O)C(=O)N[C@H](C(=O)N[C@@H](CC(N)=O)C(=O)N[C@@H](CCCCN)C(=O)N[C@@H](CCC(N)=O)C(=O)N[C@H](C(=O)N[C@@H](CC(C)C)C(=O)N[C@@H](C)C(=O)N[C@@H](CCC(N)=O)C(=O)N[C@H](C(N)=O)C(C)C)[C@@H](C)CC)[C@@H](C)O)[C@@H](C)CC)[C@@H](C)CC)C(C)C)C(C)C
For the molecule B1, the EC50 [nM], 0% HSA worked out at 0.24 nM and the EC50 [nM], 0.1% HSA was 3.82 nM.

B2: SEQ ID NO: 31 (peptide)
peptide: IVLSLD[dV]PTKLK([γGlu-Palmitoyl])QKLLKQERQRKEREQAEKN[Aib]RILERV-NH2
modifications: N-terminus assumed
SMILES: CCCCCCCCCCCCCCCC(=O)N[C@@H](CCC(=O)NCCCC[C@H](NC(=O)[C@H](CC(C)C)NC(=O)[C@H](CCCCN)NC(=O)[C@@H](NC(=O)[C@@H]1CCCN1C(=O)[C@H](NC(=O)[C@H](CC(=O)O)NC(=O)[C@H](CC(C)C)NC(=O)[C@H](CO)NC(=O)[C@H](CC(C)C)NC(=O)[C@@H](NC(=O)[C@@H](N)[C@@H](C)CC)C(C)C)C(C)C)[C@@H](C)O)C(=O)N[C@@H](CCC(N)=O)C(=O)N[C@@H](CCCCN)C(=O)N[C@@H](CC(C)C)C(=O)N[C@@H](CC(C)C)C(=O)N[C@@H](CCCCN)C(=O)N[C@@H](CCC(N)=O)C(=O)N[C@@H](CCC(=O)O)C(=O)N[C@@H](CCCNC(=N)N)C(=O)N[C@@H](CCC(N)=O)C(=O)N[C@@H](CCCNC(=N)N)C(=O)N[C@@H](CCCCN)C(=O)N[C@@H](CCC(=O)O)C(=O)N[C@@H](CCCNC(=N)N)C(=O)N[C@@H](CCC(=O)O)C(=O)N[C@@H](CCC(N)=O)C(=O)N[C@@H](C)C(=O)N[C@@H](CCC(=O)O)C(=O)N[C@@H](CCCCN)C(=O)N[C@@H](CC(N)=O)C(=O)NC(C)(C)C(=O)N[C@@H](CCCNC(=N)N)C(=O)N[C@H](C(=O)N[C@@H](CC(C)C)C(=O)N[C@@H](CCC(=O)O)C(=O)N[C@@H](CCCNC(=N)N)C(=O)N[C@H](C(N)=O)C(C)C)[C@@H](C)CC)C(=O)O
Molecule B2 came in with an EC50 [nM], 0% HSA of 0.01 nM.

B3: SEQ ID NO: 1 (peptide)
peptide: IVLSLDVPIGLK([γGlu-Palmitoyl])QILLEQEKQEKEKQQAETNAQILAQV-NH2
modifications: N-terminus assumed
SMILES: CCCCCCCCCCCCCCCC(=O)N[C@@H](CCC(=O)NCCCC[C@H](NC(=O)[C@H](CC(C)C)NC(=O)CNC(=O)[C@@H](NC(=O)[C@@H]1CCCN1C(=O)[C@@H](NC(=O)[C@H](CC(=O)O)NC(=O)[C@H](CC(C)C)NC(=O)[C@H](CO)NC(=O)[C@H](CC(C)C)NC(=O)[C@@H](NC(=O)[C@@H](N)[C@@H](C)CC)C(C)C)C(C)C)[C@@H](C)CC)C(=O)N[C@@H](CCC(N)=O)C(=O)N[C@H](C(=O)N[C@@H](CC(C)C)C(=O)N[C@@H](CC(C)C)C(=O)N[C@@H](CCC(=O)O)C(=O)N[C@@H](CCC(N)=O)C(=O)N[C@@H](CCC(=O)O)C(=O)N[C@@H](CCCCN)C(=O)N[C@@H](CCC(N)=O)C(=O)N[C@@H](CCC(=O)O)C(=O)N[C@@H](CCCCN)C(=O)N[C@@H](CCC(=O)O)C(=O)N[C@@H](CCCCN)C(=O)N[C@@H](CCC(N)=O)C(=O)N[C@@H](CCC(N)=O)C(=O)N[C@@H](C)C(=O)N[C@@H](CCC(=O)O)C(=O)N[C@H](C(=O)N[C@@H](CC(N)=O)C(=O)N[C@@H](C)C(=O)N[C@@H](CCC(N)=O)C(=O)N[C@H](C(=O)N[C@@H](CC(C)C)C(=O)N[C@@H](C)C(=O)N[C@@H](CCC(N)=O)C(=O)N[C@H](C(N)=O)C(C)C)[C@@H](C)CC)[C@@H](C)O)[C@@H](C)CC)C(=O)O
As for B3, the EC50 [nM], 0% HSA was found to be 0.01 nM.

B4: SEQ ID NO: 33 (peptide)
peptide: IVLSLD[dV]PTKLK([γGlu-Palmitoyl])QKLLKQERQRKEREQAEKNTRILERV-NH2
modifications: N-terminus assumed
SMILES: CCCCCCCCCCCCCCCC(=O)N[C@@H](CCC(=O)NCCCC[C@H](NC(=O)[C@H](CC(C)C)NC(=O)[C@H](CCCCN)NC(=O)[C@@H](NC(=O)[C@@H]1CCCN1C(=O)[C@H](NC(=O)[C@H](CC(=O)O)NC(=O)[C@H](CC(C)C)NC(=O)[C@H](CO)NC(=O)[C@H](CC(C)C)NC(=O)[C@@H](NC(=O)[C@@H](N)[C@@H](C)CC)C(C)C)C(C)C)[C@@H](C)O)C(=O)N[C@@H](CCC(N)=O)C(=O)N[C@@H](CCCCN)C(=O)N[C@@H](CC(C)C)C(=O)N[C@@H](CC(C)C)C(=O)N[C@@H](CCCCN)C(=O)N[C@@H](CCC(N)=O)C(=O)N[C@@H](CCC(=O)O)C(=O)N[C@@H](CCCNC(=N)N)C(=O)N[C@@H](CCC(N)=O)C(=O)N[C@@H](CCCNC(=N)N)C(=O)N[C@@H](CCCCN)C(=O)N[C@@H](CCC(=O)O)C(=O)N[C@@H](CCCNC(=N)N)C(=O)N[C@@H](CCC(=O)O)C(=O)N[C@@H](CCC(N)=O)C(=O)N[C@@H](C)C(=O)N[C@@H](CCC(=O)O)C(=O)N[C@@H](CCCCN)C(=O)N[C@@H](CC(N)=O)C(=O)N[C@H](C(=O)N[C@@H](CCCNC(=N)N)C(=O)N[C@H](C(=O)N[C@@H](CC(C)C)C(=O)N[C@@H](CCC(=O)O)C(=O)N[C@@H](CCCNC(=N)N)C(=O)N[C@H](C(N)=O)C(C)C)[C@@H](C)CC)[C@@H](C)O)C(=O)O
The molecule B4 displayed an EC50 [nM], 0% HSA of 0.2 nM.

B5: SEQ ID NO: 30 (peptide)
peptide: IVLSLD[dV]PTKLK([γGlu-Palmitoyl])KKLLKQERKRKEREQAEKAARILERV-NH2
modifications: N-terminus assumed
SMILES: CCCCCCCCCCCCCCCC(=O)N[C@@H](CCC(=O)NCCCC[C@H](NC(=O)[C@H](CC(C)C)NC(=O)[C@H](CCCCN)NC(=O)[C@@H](NC(=O)[C@@H]1CCCN1C(=O)[C@H](NC(=O)[C@H](CC(=O)O)NC(=O)[C@H](CC(C)C)NC(=O)[C@H](CO)NC(=O)[C@H](CC(C)C)NC(=O)[C@@H](NC(=O)[C@@H](N)[C@@H](C)CC)C(C)C)C(C)C)[C@@H](C)O)C(=O)N[C@@H](CCCCN)C(=O)N[C@@H](CCCCN)C(=O)N[C@@H](CC(C)C)C(=O)N[C@@H](CC(C)C)C(=O)N[C@@H](CCCCN)C(=O)N[C@@H](CCC(N)=O)C(=O)N[C@@H](CCC(=O)O)C(=O)N[C@@H](CCCNC(=N)N)C(=O)N[C@@H](CCCCN)C(=O)N[C@@H](CCCNC(=N)N)C(=O)N[C@@H](CCCCN)C(=O)N[C@@H](CCC(=O)O)C(=O)N[C@@H](CCCNC(=N)N)C(=O)N[C@@H](CCC(=O)O)C(=O)N[C@@H](CCC(N)=O)C(=O)N[C@@H](C)C(=O)N[C@@H](CCC(=O)O)C(=O)N[C@@H](CCCCN)C(=O)N[C@@H](C)C(=O)N[C@@H](C)C(=O)N[C@@H](CCCNC(=N)N)C(=O)N[C@H](C(=O)N[C@@H](CC(C)C)C(=O)N[C@@H](CCC(=O)O)C(=O)N[C@@H](CCCNC(=N)N)C(=O)N[C@H](C(N)=O)C(C)C)[C@@H](C)CC)C(=O)O
Consider B5, for which the EC50 [nM], 0% HSA was 0.16 nM.

B6: SEQ ID NO: 34 (peptide)
peptide: FTLSLDVPTKIK([AEEA-AEEA-γGlu-C18 diacid])QKLLKQEKQKKQRQKAKTNKQILEQV-NH2
modifications: N-terminus assumed
SMILES: CC[C@H](C)[C@H](NC(=O)[C@H](CCC(N)=O)NC(=O)[C@H](CCCCN)NC(=O)[C@H](CC(N)=O)NC(=O)[C@@H](NC(=O)[C@H](CCCCN)NC(=O)[C@H](C)NC(=O)[C@H](CCCCN)NC(=O)[C@H](CCC(N)=O)NC(=O)[C@H](CCCNC(=N)N)NC(=O)[C@H](CCC(N)=O)NC(=O)[C@H](CCCCN)NC(=O)[C@H](CCCCN)NC(=O)[C@H](CCC(N)=O)NC(=O)[C@H](CCCCN)NC(=O)[C@H](CCC(=O)O)NC(=O)[C@H](CCC(N)=O)NC(=O)[C@H](CCCCN)NC(=O)[C@H](CC(C)C)NC(=O)[C@H](CC(C)C)NC(=O)[C@H](CCCCN)NC(=O)[C@H](CCC(N)=O)NC(=O)[C@H](CCCCNC(=O)COCCOCCNC(=O)COCCOCCNC(=O)CC[C@H](NC(=O)CCCCCCCCCCCCCCCCC(=O)O)C(=O)O)NC(=O)[C@@H](NC(=O)[C@H](CCCCN)NC(=O)[C@@H](NC(=O)[C@@H]1CCCN1C(=O)[C@@H](NC(=O)[C@H](CC(=O)O)NC(=O)[C@H](CC(C)C)NC(=O)[C@H](CO)NC(=O)[C@H](CC(C)C)NC(=O)[C@@H](NC(=O)[C@@H](N)Cc1ccccc1)[C@@H](C)O)C(C)C)[C@@H](C)O)[C@@H](C)CC)[C@@H](C)O)C(=O)N[C@@H](CC(C)C)C(=O)N[C@@H](CCC(=O)O)C(=O)N[C@@H](CCC(N)=O)C(=O)N[C@H](C(N)=O)C(C)C
The molecule B6 had an EC50 [nM], 0% HSA of 6.88 nM.
